Patent US20130230540A1 (DOMANTIS, published 2013)

Key:
[1] = target: T1, recombinant human CD28/Fc Chimera (R&D Systems) (human, UniProt P10747 19-152); assay: SPR (BIAcore), CM5 chip coated with 12500 RU CD28-Fc; dAb injected at 14.7 µM
T1 construct: Bought reagent (R&D Systems, Abingdon, UK); not shown: Fc portion of the bought chimera
Source text: (§1) All 58 clones were expressed and purified and tested on the BIAcore against a CM5 chip coated with 12500 RU (response units) of CD28-Fc. […] The protein concentrations used for BIAcore analysis were: […]

[2] = target: T1, recombinant human CD28/Fc Chimera (R&D …); assay: SPR (BIAcore), CM5 chip coated with 12500 RU CD28-Fc; dAb injected at 13.8 µM
Source text: as §1

[3] = target: T1, recombinant human CD28/Fc Chimera (R&D …); assay: SPR (BIAcore), CM5 chip coated with 12500 RU of CD28-Fc, purified dAb, concentration not given
Source text: as §1

[4] = target: T1, recombinant human CD28/Fc Chimera (R&D …); assay: SPR (BIAcore), CM5 chip coated with 12500 RU CD28-Fc; dAb injected at 19.4 µM
Source text: as §1

[5] = target: T1, recombinant human CD28/Fc Chimera (R&D …); assay: SPR (BIAcore), CM5 chip coated with 12500 RU CD28-Fc; dAb injected at 42.3 µM
Source text: as §1

[6] = target: T1, recombinant human CD28/Fc Chimera (R&D …); assay: SPR (BIAcore), CM5 chip coated with 12500 RU CD28-Fc; dAb injected at 68.1 µM
Source text: as §1

[7] = target: T1, recombinant human CD28/Fc Chimera (R&D …); assay: SPR (BIAcore), CM5 chip coated with 12500 RU CD28-Fc; dAb injected at 16.6 µM
Source text: as §1

[8] = target: T1, recombinant human CD28/Fc Chimera (R&D …); assay: SPR (BIAcore), CM5 chip coated with 12500 RU CD28-Fc; dAb injected at 57.5 µM
Source text: as §1

B1: DOM21-27 (other)
VL: DIQMTQSPSSLSASVGDRVTITCRASQSIGTGLRWYQQKPGKAPMLLIYRASILQSGVPSRFSGSGSGTDFTLTISSLQPEDFATYYCQQTTLQPFTFSQGTKVEIKR
notes: Human Vkappa antibody single variable domain (dAb), expressed from pDOM5 and purified
[1]
  binding result: binds

B2: DOM21-18 (other)
VL: DIQMTQSPSSLSASVGDRVTITCRASQYIGTSLNWYQQKPGKAPKLLTYQASLLQSGVPSRFSGSGSGTDFTLTISSLQPEDFATYYCQQLALRPMTFGQGTKVEIKR
notes: Human Vkappa antibody single variable domain (dAb), DPK9/Jk1 framework, expressed from pDOM5 and purified
[2]
  binding result: binds

B3: DOM21-44 (other)
VH: EVQLLESGGGLVQPGGSLRLSCAASGFTFARYTMVWVRQAPGKGLEWVSAIHFDGRTTYYADSVKGRFTISRDNSKNTLYLQMNSLRAEDTAVYYCAKNEWASLKHFDYWGQGTLVTVSS
notes: Human VH antibody single variable domain (dAb), expressed from pDOM5 and purified
[3]
  binding result: binds

B4: DOM21-22 (other)
VH: EVQLLESGGGLVQPGGSLRLSCAASGFTFELYQMGWVRQAPGKGLEWVSTIMPSGNLTYYADSVKGRFTISRDNSKNTLYLQMNSLRAEDTAVYYCAKMWSLNLGFHAAFDYWGQGTLVTVSS
notes: as for B3
[4]
  binding result: binds

B5: DOM21-4 (other)
VH: EVQLLESGGGLVQPGGSLRLSCAASGFTFSRYHMAWVRQAPGKGLEWVSVIDSLGLQTYYADSVKGRFTISRDNSKNTLYLQMNSLRAEDTAVYYCAEYGGAFDYWGQGTLVTVSS
notes: Human VH antibody single variable domain (dAb), DP47/JH4b framework, expressed from pDOM5 and purified
[5]
  binding result: binds

B6: DOM21-6 (other)
VH: EVQLLESGGGLVQPGGSLRLSCAASGFTFENYGMAWVRQAPGKGLEWVSNIGRAGSVTYYADSVKGRFTISRDNSKNTLYLQMNSLRAEDTAVYYCAKVQSWRTFDYWGQGTLVTVSS
notes: as for B3
[6]
  binding result: binds

B7: DOM21-28 (other)
VL: DIQMTQSPSSLSASVGDRVTITCRASQSISHSLVWYQQKPGKAPKLLIYWASLLQSGVPSRFSGSGSGTDFTLTISSLQPEDFATYYCQQGMTTPFTFGQGTKVEIKR
notes: as for B1
[7]
  binding result: binds

B8: DOM21-38 (other)
VH: EVQLLESGGGLVQPGGSLRLSCAASGFTFILYDMQWVRQAPGKGLEWVSRISANGHDTYYADSVKGRFTISRDNSKNTLYLQMNSLRAEDTAVYYCAKGPHYLFDYWGQGTLVTVSS
notes: as for B3
[3]
  binding result: binds

B9: DOM21-20 (other)
VH: EVQLLESGGGLVQPGGSLRLSCAASGFTFPAYSMIWVRQAPGKGLEWVSTISPLGYSTYYADSVKGRFTISRDNSKNTLYLQMNSLRAEDTAVYYCAEQTAYLNRATEHFDYWGQGTLVTVSS
notes: as for B3
[8]
  binding result: binds
